± gives the uncertainty stated by the source.

The chains are these.
B1: POU domain, class 4, transcription factor 1, residues 266 to 347; numbered along this chain, Q01851 (parent)
chain: RELEAFAERFKQRRIKLGVTQADVGSALANLKIPGVGSLSQSTICRFESLTLSHNNMIALKPILQAWLEEAEGAQREKMNKP

The variants in the data set derive from B1. In words: abundance fitness (aPCA) (normalised: wild type 0, dead -1); higher = more abundant; growth selection in yeast, the domain comes from the species named. The settings on record: Homo sapiens.
On to RELEAFAERFKQRRIKLGVTQADVGSALANLKIPGVGSLSQSTICRFESLTLSHNNMIALKPILNAWLEEAEGAQREKMNKP [Q65N], for which the abundance fitness was -0.078 ± 0.044. Regarding RELEAFAERFKQRRIKLGVTQADVGSALANLKIPGVGSLSQSTICRFESLTLSHNNMIALKPILMAWLEEAEGAQREKMNKP [Q65M], the abundance fitness is -0.056 ± 0.032. The figure for RELEAFAERFKQRRIKLGVTQADVGSALANLKIPGVGSLSQSTICRFESLTLSHNNMIALKPILLAWLEEAEGAQREKMNKP [Q65L] is -0.073 ± 0.026. On to RELEAFAERFKQRRIKLGVTQADVGSALANLKIPGVGSLSQSTICRFESLTLSHNNMIALKPILHAWLEEAEGAQREKMNKP [Q65H], for which the abundance fitness was -0.047 ± 0.05. In the case of RELEAFAERFKQRRIKLGVTQADVGSALANLKIPGVGSLSQSTICRFESLTLSHNNMIALKPILKAWLEEAEGAQREKMNKP [Q65K], the abundance fitness is -0.049 ± 0.036. Then RELEAFAERFKQRRIKLGVTQADVGSALANLKIPGVGSLSQSTICRFESLTLSHNNMIALKPILEAWLEEAEGAQREKMNKP [Q65E], with 0.061 ± 0.031; and RELEAFAERFKQRRIKLGVTQADVGSALANLKIPGVGSLSQSTICRFESLTLSHNNMIALKPILRAWLEEAEGAQREKMNKP [Q65R], with -0.162 ± 0.023; and RELEAFAERFKQRRIKLGVTQADVGSALANLKIPGVGSLSQSTICRFESLTLSHNNMIALKPILGAWLEEAEGAQREKMNKP [Q65G], with -0.086 ± 0.024.

For RELEAFAERFKQRRIKLGVTQADVGSALANLKIPGVGSLSQSTICRFESLTLSHNNMIALKPILIAWLEEAEGAQREKMNKP [Q65I], the abundance fitness is -0.105 ± 0.045. Then RELEAFAERFKQRRIKLGVTQADVGSALANLKIPGVGSLSQSTICRFESLTLSHNNMIALKPILDAWLEEAEGAQREKMNKP [Q65D], with 0.01 ± 0.041; and RELEAFAERFKQRRIKLGVTQADVGSALANLKIPGVGSLSQSTICRFESLTLSHNNMIALKPILAAWLEEAEGAQREKMNKP [Q65A], with -0.041 ± 0.028. Then RELEAFAERFKQRRIKLGVTQADVGSALANLKIPGVGSLSQSTICRFESLTLSHNNMIALKPILWAWLEEAEGAQREKMNKP [Q65W], with -0.144 ± 0.029; and RELEAFAERFKQRRIKLGVTQADVGSALANLKIPGVGSLSQSTICRFESLTLSHNNMIALKPILFAWLEEAEGAQREKMNKP [Q65F], with -0.112 ± 0.041; and RELEAFAERFKQRRIKLGVTQADVGSALANLKIPGVGSLSQSTICRFESLTLSHNNMIALKPILPAWLEEAEGAQREKMNKP [Q65P], with -0.98 ± 0.079. The figure for RELEAFAERFKQRRIKLGVTQADVGSALANLKIPGVGSLSQSTICRFESLTLSHNNMIALKPILYAWLEEAEGAQREKMNKP [Q65Y] is -0.075 ± 0.059; for RELEAFAERFKQRRIKLGVTQADVGSALANLKIPGVGSLSQSTICRFESLTLSHNNMIALKPILCAWLEEAEGAQREKMNKP [Q65C] it is -0.14 ± 0.041; for RELEAFAERFKQRRIKLGVTQADVGSALANLKIPGVGSLSQSTICRFESLTLSHNNMIALKPILTAWLEEAEGAQREKMNKP [Q65T] it is -0.06 ± 0.029. As for RELEAFAERFKQRRIKLGVTQADVGSALANLKIPGVGSLSQSTICRFESLTLSHNNMIALKPILQEWLEEAEGAQREKMNKP [A66E], the abundance fitness was 0.012 ± 0.029. Consider RELEAFAERFKQRRIKLGVTQADVGSALANLKIPGVGSLSQSTICRFESLTLSHNNMIALKPILQRWLEEAEGAQREKMNKP [A66R], for which the abundance fitness is -0.022 ± 0.023.

On to RELEAFAERFKQRRIKLGVTQADVGSALANLKIPGVGSLSQSTICRFESLTLSHNNMIALKPILQIWLEEAEGAQREKMNKP [A66I], for which the abundance fitness was -0.141 ± 0.05. In the case of RELEAFAERFKQRRIKLGVTQADVGSALANLKIPGVGSLSQSTICRFESLTLSHNNMIALKPILQQWLEEAEGAQREKMNKP [A66Q], the abundance fitness was -0.046 ± 0.035. Turning to RELEAFAERFKQRRIKLGVTQADVGSALANLKIPGVGSLSQSTICRFESLTLSHNNMIALKPILQLWLEEAEGAQREKMNKP [A66L], the abundance fitness is -0.125 ± 0.029. For the variant RELEAFAERFKQRRIKLGVTQADVGSALANLKIPGVGSLSQSTICRFESLTLSHNNMIALKPILQDWLEEAEGAQREKMNKP [A66D], the abundance fitness was found to be 0.013 ± 0.037. Regarding RELEAFAERFKQRRIKLGVTQADVGSALANLKIPGVGSLSQSTICRFESLTLSHNNMIALKPILQPWLEEAEGAQREKMNKP [A66P], the abundance fitness was -0.619 ± 0.058.

Consider RELEAFAERFKQRRIKLGVTQADVGSALANLKIPGVGSLSQSTICRFESLTLSHNNMIALKPILQGWLEEAEGAQREKMNKP [A66G], for which the abundance fitness was -0.029 ± 0.022. The figure for RELEAFAERFKQRRIKLGVTQADVGSALANLKIPGVGSLSQSTICRFESLTLSHNNMIALKPILQHWLEEAEGAQREKMNKP [A66H] is 0.001 ± 0.059. Then RELEAFAERFKQRRIKLGVTQADVGSALANLKIPGVGSLSQSTICRFESLTLSHNNMIALKPILQKWLEEAEGAQREKMNKP [A66K], with 0.044 ± 0.035. Take RELEAFAERFKQRRIKLGVTQADVGSALANLKIPGVGSLSQSTICRFESLTLSHNNMIALKPILQFWLEEAEGAQREKMNKP [A66F]: the abundance fitness is -0.113 ± 0.048.

Regarding RELEAFAERFKQRRIKLGVTQADVGSALANLKIPGVGSLSQSTICRFESLTLSHNNMIALKPILQCWLEEAEGAQREKMNKP [A66C], the abundance fitness was -0.049 ± 0.039. The figure for RELEAFAERFKQRRIKLGVTQADVGSALANLKIPGVGSLSQSTICRFESLTLSHNNMIALKPILQMWLEEAEGAQREKMNKP [A66M] is -0.041 ± 0.039; for RELEAFAERFKQRRIKLGVTQADVGSALANLKIPGVGSLSQSTICRFESLTLSHNNMIALKPILQNWLEEAEGAQREKMNKP [A66N] it is -0.017 ± 0.05; for RELEAFAERFKQRRIKLGVTQADVGSALANLKIPGVGSLSQSTICRFESLTLSHNNMIALKPIWQAWLEEAEGAQREKMNKP [L64W] it is -0.948 ± 0.19. Regarding RELEAFAERFKQRRIKLGVTQADVGSALANLKIPGVGSLSQSTICRFESLTLSHNNMIALKPIVQAWLEEAEGAQREKMNKP [L64V], the abundance fitness was -0.336 ± 0.059. As for RELEAFAERFKQRRIKLGVTQADVGSALANLKIPGVGSLSQSTICRFESLTLSHNNMIALKPIYQAWLEEAEGAQREKMNKP [L64Y], the abundance fitness was -0.144 ± 0.19.

(Values after the Human Domainome abundance scans (Beltran et al. 2025).)
